From the DeepSol protein solubility set

Experiment: soluble on expression in E. coli; label from the status in PepcDB or PDB records

Sequence: MGSDKIHHHHHHMEPAGVYAKNVQIDRELSQRLHGALTCGKEELFQVVADPAPDVIRAALRNPAMDENHLLVLLGRRDLGEDLVAAIGRHDAVAESHKLKAALVRNPATPAQLVMSLLPHLYLFELVDLCLLAGVTPDQRVAAERAVIQRLSTTPLGNKITLARRATASILDALLKESDVRVVESCLTNPRLKEGSVFQLVSSSRATGDVIAAVARHQCWSNRPNLKAAMLKNPNTPTSLFSTLLASAPTMEVRNLAASGRLGTERKRLAAQELKRRGC
- soluble on expression in E. coli: not soluble

Sequence: GPGSMAASQLIATRFTDLLAEGNIESALKYIANDVVYNTWLGVVYGKDNVEVFLRDNVRFVHHGRNYNRWKQVQHSLDASLKQFTVNDVSGYDESALDVRSYYDSEGYDSQGYATFERDGTIASHAKFAVFHVKVKETVVLRNNKVVLVNVSKRA
- soluble on expression in E. coli: not soluble

Sequence: MGSDKIHHHHHHMDTQAFKRSLHHSERYNRRGFGRANEVASNLEKAYQSSLIGSIRDNGYVLQHGRLQVKLAEAFGFCWGVERAVAMAYETRRHYPSERIWITNEIIHNPSVNEHLREMDVLFIHAEGGVKDFSCVNDGDVVILPAFGATVQEMELLHERGCHIIDTTCPWVSKVWHTVEKHKKQEFTSIIHGKVKHEETLATSSFAGTYLVVLDLDEAQLVADYILGQGDRAAFMKRFAKACSANFDPDQDLQRLGVANQTTMLKSETEEIGRLFERTMLRKYGPIELNKHFLSFNTICDATEERQQAMFSLVDEPLDLLVVIGGFNSSNTTHLQEIAISRGIRSFHIDTPERIGDNNSIQHKPLGEDLFIESNFLPAGSVSVGITSGASTPDRVVEHVIQKLIDLTSG
- soluble on expression in E. coli: not soluble

Sequence: YLYLEITNRCNLKCEMCFKQYWEDKEGDMDWDLFLKILDDAKEFPELKMIYFGGIGEPSVHPRFMDMVREVKRRGFRLGMSTNGVLLEDKILEEFVKLGVDVVYFSMDAIPTPSNIVTLGHITSKVVESRIKKLVELKKRYKTEKPTIGVEVVATKENYKQLPEMAIYLRNLGVDSMLISNLIPMTKEH
- soluble on expression in E. coli: not soluble

Sequence: MGTALAAPPLGGCAEGFEVHGGDEEGLPLPTQIDLYLVGLAPLPHHGSRQPVEPPVGHAPVWEGGVYDYSHLIAHPVLPKVGAEPGYAALLPHRLPQQPPSPVPIASRCLDQPTLPPVFCSAQLNLALAGCGWSFMLHPHHVELYTHSLPAEDLSEAWPGSPAITADQLLDVETPFRLQYALHQRRPLQGAAV
- soluble on expression in E. coli: soluble

Sequence: MDVGKRLKEVREMYGLSQRELAKRVGLTNSTISMIERDAVSPSISSLKKILEGVSLTVTEFFTLEIPTESQVVFKKDTLVDVGSDGVELHLVGTPQPDSKLAFLIERYQPGSSTGKDMITHIGEEAGTVIEGSIEITVAGRSFKLTKGDSYKFSTSLPHKFKNTSKKVCKIISAHTPPSF
- soluble on expression in E. coli: not soluble

Sequence: MERAEILGVGTELLYGETLDTNTAEIARSLKPYALKVERTLRVADEVAPLAREVEEAFARARLVVLSGGLGPTPDDVTREAVALALGEPLELDEAVLGEIEAFFRARGRAMPEANRKQAMRIPSATWLKNPRGTAPGWWVRKGGKDLVLLPGPPPEWRPMWQEVLPRLGLPRRPYAERVLKTWGIGESEIVERLGPLFVRGEEVEVGTYPKVHGVEVVVRGREDRVAELAERIKKKLLKEVWGEGEMTLAEAVKRRMEREGATLSTMESLTGGLLGAEITRVPGASRFYLGGVVSYSVGAKARFGVPQDLLSRTVSAETARAMAEAARSLFGSTYALATTGVAGPDPLEGEPPGTVYVALAGPTGAEVRRYRFPGDRETVRLRSVYAALALLVT
- soluble on expression in E. coli: soluble

Sequence: MLVEFDNPPLCMKSNKDGSRLVVGFVDGSIRFYDTQQHEEEFQEIWKFQTKSSIRGVDLDEHKKRVYAVTKNRSLCVFDIDTGKRVRCILKCHRSVPTAICTLPPTALKSQQLATADESGEVKTWNLDPEVASENANIRKWQEQDEDINDLKVDVKSNLLATSSDGTLGAYDLRKAKLKMRSELMHSELYSVCGTNRSVYVGGEDGYVEVFNLNEYGNLLERVESGFEMGVNGIVELRSGLLGLTSQGSNRMRLLNVQPSKRLGYAGYHGDEKSDDDGIDAITISTDKSTVFTMISMSCTIKKWDMGPIIDEIPILRAQDAKSKKMRKTEGFFDGLVGPKNDSDSDDDDEPKSKKRRNDEDSDEEIDEEEQEEDDEEEEEDSD
- soluble on expression in E. coli: not soluble

Sequence: MTPISGRCEMAEVTNIPNPGHTSSWYAASANVKSVRPTLEGALEADVCIIGGGFTGISAALELSERGYAVIVLEGVRVGFGASGRNGGQIVNGYSRDLETIARRYGHEKAVKLGEMSLEGGTIIRSRVAKYGIDCDLVDGGFFAAFTPKQIREMEAHKAHWEKHGHGGLEMVSEADVGQYVKTNRYAGGMIDRFGGHIHPLNLVQGEAAAAESLGARIFENSRVIAVEQGANPIVRTAMGSVKAKYVLVCGNAYLGTLLPEIGERMMPVSSQVMATEPLDADLIEALLPANYCVEDANYILDYYRRTSDNRLLYGGGIGYGGSDPADLTGVIRPNMLKTFPQLEKTKIEFAWSGNFALTLTRIPHMGRLSDNIYFSHGDSGHGVTTTHLLGKILGEAVAGHAERFDIWSSLPNYPFPGGKTFRVPLTMLGAWWYGLRDKLGLLEHHHHHH
- soluble on expression in E. coli: not soluble

Sequence: MGSDKIHHHHHHMRNEYFFRVAGLTFSVILPGGLDAETLLPSFRPFRCGECPEGERIFRLLADTRPFADDGKRAELLDESSNDMGHVCLLRIPGGYRTEISYGPMDGGAHLMTVDTAFDDATAFLRVEDPSMGEVLSSMLRILYAQAALGRDAVSVHASCVSLKGRGYLFLGKSGTGKSTHSRQWLEAFPDCRLLNDDNPVLRIEDGMVSVYGTPWSGKTPCYRNERRPVAGIVRLQQSGTNRFTPLEGPEAFAALLPSCSAIRQDIRLHDELCRILIRVTEQVPVGRLECLPDREAAWLCFESLYVRDAKAREVRDGLPENGGL
- soluble on expression in E. coli: not soluble

Sequence: MEEALKENIMGALEQVVDPELGVDIVNLGLVYDVDMDEDGLTHITMTLTSMGCPLAPIIVDEVKKALADLPEVKDTEVHIVWNPPWTRDKMSRYAKIALGIQLEHHHHHH
- soluble on expression in E. coli: not soluble

Sequence: MKEKVIVIGGGLAGSEAAWRLANEGHRVILYEMRPKKMTPAHKTGNLAELVCSNTLGGLELTTGAGLLKAEMQKLGSLVIEAAKVARVPAGGALGVDRKIFSEYITEKIESHPNITLIREEVKEIPEDEVVVIATGPLTSDALSEKIKELVGYDTLYFYDAIAPIVEAESVDFSKGFWGSRYGKGGDDYFNCVLTEEEYKKFYEELLKAEKVKPKDFEKAVHFEGCLPIEEMAERGYKTLLFGPMKPVGLVDPRTGKEPFAVVQLRKENKEGTLLSLVGFQTKLTYKEQKRVFRLIPCLRNAVFVRLGSMHRNTFIQSNKVLTHYLNLKKKENIFFAGQITGVEGYVASSATGILAGINAGRLARGEKPLKAPTETMLGALVNYIVTKEGELQPMNPVFGLLPPLEKKVRDKKKRKELMAKRALETMEKWIKENNLVPEGLVKVC
- soluble on expression in E. coli: soluble

Sequence: MSKTYHFIGIKGSGMSALALMLHQMGHNVQGSDVDKYYFTQRGLEQAGVTILPFSPNNISEDLEIIAGNAFRPDNNEELAYVIEKGYQFKRYHEFLGDFMRQFTSLGVAGAHGKTSTTGLLAHVLKNITDTSFLIGDGTGRGSANANYFVFEADEYERHFMPYHPEYSIITNIDFDHPDYFTGLEDVFNAFNDYAKQVQKGLFIYGEDPKLHEITSEAPIYYYGFEDSNDFIAKDITRTVNGSDFKVFYNQEEIGQFHVPAYGKHNILNATAVIANLYIMGIDMALVAEHLKTFSGVKRRFTEKIIDDTVIIDDFAHHPTEIIATLDAARQKYPSKEIVAIFQPHTFTRTIALLDEFAHALSQADSVYLAQIYGSAREVDNGEVKVEDLAAKIVKHSDLVTVENVSPLLNHDNAVYVFMGAGDIQLYERSFEELLANLTKNTQ
- soluble on expression in E. coli: not soluble

Sequence: GMSSTSSKVVLHPTMLNCMRGLHKKAVLPEPVLDRGIELARAFVGGRRARGQRVERQPDVAAACLMIAAEEAQQPLPLAEVRCLDSSLGDVELRRADIVRELHLEDSERRLRDTFADNLLVKYILKLGLQVSLYLPHCKRLLTALGRVEALAGLTVADRVTTALLLARTAQTLSWEQGTHISKGKECDLGMEAIYANFSSKAHLEVTKVNKIMHLAVDVLPLIQAAFQDCGEPTAGKRKVDKNSEPEASGGTKRVKREET
- soluble on expression in E. coli: soluble

Sequence: MAHHHHHHMRVLSGVELEAVNRVVEHLRCHPEDLHRNEFRELREYMASLGASIPPPPDTPDVSGVRKEANSDDEEEYVSEPDSQRCALEPVSDDDITAYDGTDPTPEDEERAMGLKAQAAELAADGDFDKAIELMGQALRIVPGKAMYWAQRASYFLKCTQPGAALQDANRALDLNPENVRALRVRGTVNRRLGKWEEALKDLSEAQAVDYDEGIDEILRFVQKRTNDRRQFQQRKKEAQRLRQEALRRQREHELREEEMKREQQQQRDQQQSGAGDFPGGAGGFPGGFPGGAGGGGMQSFMESLFQDQELAEAMKDPEVAAKLATLRSNPMAALQMMGDPKVGPLIQKMMSKAMGGSSPGSSPFGAGASAGATSHADAHHSDELD
- soluble on expression in E. coli: soluble

Sequence: MGSDKIHHHHHHVKKQVPDKTELGRTRVLVVGDVMLDRYWFGAVERISPEAPVPVVRVTREEERLGGAANVALNVKSLGARATLLTVVGDDEPAHTLKRLLERDGIDTLLGSDPQLYTIVKLRVIGRSQQLIRIDFENQPDHEVLAEMLQDYETTLAEQDAVLFSDYGKGGLEHIPRMIELARRSGKPVLVDPKGSDYRRYAGASVITPNRAELAQVVGAWSSEAQLRERAQALRVELGLEALLLTRSEEGMTLFDARGDTSVPAQAREVFDVTGAGDTVIATMAAMIACGLSPREAMPLANRAGSIVVGKFGTASVSYDELFE
- soluble on expression in E. coli: not soluble

Sequence: MMINQKNDIPLCAQEFSKLTDPLYIKKICLEKVHDWSRCNEDDVCVNQILSGLTNQLFEVSIKEDTAIEYRITRRHVLFRIYGKDVDALYNPLSEFEVYKTMSKYRIAPLLLNTFDGGRIEEWLYGDPLSIDDLKNKSILVGIANVLGKFHTLSRKRHLPEHWDKTPCVFKMMDRWRLAVSNYKNLDKVTLDINKYIQESHKFLKFIKIYTQIENIANDIVFCHNDLQENNIMNTNKCLRLIDFEYSGYNFLSADIANFFIETTIDYSYNAYPFFIINKKNYISYESRILFVTTYLSKYLDDSTAASDQDIIDQFLEAIEVQALGLHLIWAFWSIIRGYQTKSYNEFDFFLYAKERLKMYDEQKQYLMSKNIIKD
- soluble on expression in E. coli: not soluble

Sequence: MEKEKKGAKHELDLSSILQFVAPGTPLRAGMENVLRANTGGLIVVGYNDKVKEVVDGGFHINTAFSPAHLYELAKMDGAIILSDSGQKILYANTQLMPDATISSSETGMRHRTAERVAKQTGCLVIAISERRNVITLYQENMKY
- soluble on expression in E. coli: not soluble

Sequence: MGSDKIHHHHHHMLDVHKDIKKIFHEEQVLAEAAARYGFSKDQVRFLADAENYVYECMKDNQPYILKITHTIRRSSDYMMGEMEWLRHLAIGGISVAKPLPSLNGKDVEAVPDGNGGSFLLRVYEKAPGQKVDESDWNETLFYELGRYTGSMHSLTKSYKLSNPAFKRAAWAEEEQLKLRKYVPEDQIKVFQQADSLMNELRRLPKSQDNYGLVHADLHHGNFNWDHGKITAFDFDDIGYNWFVNDISILLYNVLWYPVVPYDDKAAFTEEFMTHFMKGYWEENELDPAWLMIIPDFLRLRHMLIYGLLHQMFDLNTIGEEEKEMLAGFRRDIENGTPITAFDFSALV
- soluble on expression in E. coli: not soluble

Sequence: MIPVERHQQILALIAERGAVSINELTERLGVSHMTVRRDVQKLEQDGLLLSVSGGVRSPERLATEPSHQDKSVMFSQQKAAMGKLAAQHIPLNSCIYLDAGTTTLSLARELAERDDLLIVTNDFAIAAFLIESSQCRMIHTGGTLCRENQSCIGEAVAQALRNLFIDIAFISASSWSLRGLSTPNEDKVVVKRAAVEASRKRVLLCDTSKYGRIATHLATPLDVFDSIITDDGLPVAAKEALSKMGVEVLVAG
- soluble on expression in E. coli: not soluble

Sequence: MSLEKKNASTDEKGYYSNKISLEDLNKNIEDKKEQTIYFYQTSCVHCQKVSPIVVPLAKDLNVDMKVIDIENLNEPWDKYNIQGTPTIIHFKDGKEVSRISGEQSKDKFKEWFEQTKKEGHHHHHH
- soluble on expression in E. coli: not soluble
